Source: paper PMC12188319

Biological target: FcγRIIIa (UniProt P08637)
Experiment: SPR

Sequence of UniProt P08637 (P08637 17-254): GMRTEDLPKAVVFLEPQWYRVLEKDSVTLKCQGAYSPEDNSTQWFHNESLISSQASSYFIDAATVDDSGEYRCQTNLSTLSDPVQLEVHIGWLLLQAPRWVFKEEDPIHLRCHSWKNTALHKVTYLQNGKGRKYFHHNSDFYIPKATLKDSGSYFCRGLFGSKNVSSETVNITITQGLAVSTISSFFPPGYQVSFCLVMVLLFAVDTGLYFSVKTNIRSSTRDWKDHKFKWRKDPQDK

Kd: 150 nM
Substance: JSKN003 (bispecific antibody)
